Measurements taken from patent publication US20200114017A1 (BIONOMICS, published 2020).
Positions count from the first letter of the chain named. One block for each binder: values may come before it.

How the values were obtained:
[1] = molecular target: T1, human LGR5 (leucine-rich repeat containing G-protein-coupled receptor 5) (human, UniProt O75473 22-561); test: cell-based or functional assay
T1 sequence: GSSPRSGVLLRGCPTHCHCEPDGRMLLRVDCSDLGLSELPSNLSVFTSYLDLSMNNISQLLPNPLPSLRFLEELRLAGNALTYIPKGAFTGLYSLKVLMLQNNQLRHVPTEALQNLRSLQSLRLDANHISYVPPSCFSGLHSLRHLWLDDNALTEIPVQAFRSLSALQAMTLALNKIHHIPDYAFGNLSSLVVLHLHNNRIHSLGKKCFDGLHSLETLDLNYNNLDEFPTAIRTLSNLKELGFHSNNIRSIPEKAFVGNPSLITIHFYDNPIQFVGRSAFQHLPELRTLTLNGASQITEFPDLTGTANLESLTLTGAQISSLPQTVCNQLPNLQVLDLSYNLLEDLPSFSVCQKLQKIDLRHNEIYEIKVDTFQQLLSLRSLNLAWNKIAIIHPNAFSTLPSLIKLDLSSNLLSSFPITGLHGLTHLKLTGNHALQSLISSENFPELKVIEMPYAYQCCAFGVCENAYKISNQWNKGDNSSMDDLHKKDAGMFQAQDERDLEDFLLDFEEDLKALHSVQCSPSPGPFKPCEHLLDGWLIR

[2] = molecular target: T1, human LGR5 (leucine-rich repeat …); test: FACS on CHO cells expressing recombinant LGR5

B1: 18G7Ch (antibody, human IgG1, kappa, V domains shown)
VH: QVQLQQSGAELVKPGASVKISCKATGYTFSGYWIEWVKQRPGHGLEWIGEILPGSDSTNYNEKFKGKATFTADTSSNTVYMQFSSLTSEDSAVYYCARSGYYGSSQYWGQGTTLTVSS
VL: NIVLTQSPASLAVSLGQRATISCRASESVDSYGNSFMHWYQQKPGQPPKLLIYLTSNLESGVPARFSGSGSRTDFTLTIDPVEADDAATYYCQQNNEDPRTFGGGTKLEIKR
IC50 (nM) of cell viability, MTS assay, primary antibody + secondary ADC (NL-MMAF) [1]: 0.115 nM

EC50 [2]: < 10 nM
B2: 18G7H6A1 (antibody, human IgG1, kappa, V domains shown)
VH: EVQLVQSGAEVKKPGESLRISCKGSGYSFTAYWIEWVRQAPGKGLEWIGEILPGSDSTNYNEKFKGHVTISADKSISTAYLQWSSLKASDTAVYYCARSGYYGSSQYWGQGTLVTVSS
VL: B1 VL with N1D, L15P, S22T, A64D, R72G, D80N, D85N, N96A
